Measurements: the supplement of paper PMC10567573

B1: SPOPL (parent)
chain: AKREETKAMESQRAYRFVQGKDWG

Variants of: B1
Assay: protein stability index of a GFP-peptide fusion (GPS, HEK-293T) (PSI 1-6); higher = more stable
Details: c terminus: a fixed tail appended
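Further: lentivirally expressed fusions sorted by FACS into six bins by GFP to DsRed ratio, PSI derived from sequencing read proportions per bin multiplied by bin number.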

Protein stability index of substitutions, site by site:
Q19: T 2.73 | E 2.6 | D 2.54 | F 3.19 | W 2.38 | S 2.44 | Y 2.77 | R 3.93 | V 2.37 | I 2.6 | A 1.15 | C 2.68 | H 3.04 | K 3.43 | M 2.25 | N 2.85 | L 2.15 | P 3.22
K21: Y 3.08 | I 2.94 | Q 3.02 | P 2.4 | R 2.51 | F 3.62 | C 3.28 | E 3.46 | G 2.83 | N 3.11 | H 2.32 | V 3.1 | T 3.04 | M 3.43 | S 2.67 | D 3.99 | A 2.96 | L 2.67 | W 3.44
V18: Q 3.16 | D 4.05 | H 2.84 | W 2.43 | M 3.42 | L 3.51 | P 4.07 | N 4.14 | G 3.67 | A 4.22 | C 3.51 | K 4.13 | R 3.99 | E 4.15 | F 3.32 | T 3.96 | I 2.66 | Y 3.78 | S 4.19
G20: W 2.72 | D 4.06 | Q 4.14 | V 3.19 | P 2.83 | A 3.33 | N 3.76 | S 3.35 | H 3.33 | E 4.31 | Y 3.13 | F 3.49 | I 2.73 | C 2.97 | K 3.64 | T 3.41 | L 2.88 | M 2.58 | R 3.59
D22: H 3.1 | G 3.96 | E 3.17 | C 3.13 | A 3.14 | F 2.94 | I 3.4
F17: L 3.67 | E 4.61 | K 4.45 | W 4.36 | R 4.59 | A 4.73 | M 3.96 | Q 4.37 | P 4.03 | G 4.68 | I 4.02 | C 4.24 | H 3.72 | Y 4.18 | V 3.94 | N 4.59 | S 4.19 | T 4.04 | D 4.72
Y15: M 3.02 | A 4.14 | T 4.7 | R 4.3 | P 4.21 | N 4.35 | V 3.92 | K 4.61 | L 2.51 | W 3.25 | G 4 | Q 3.89 | C 2.9 | E 4.26 | I 4.26 | F 1.39 | D 5.19 | H 3.98 | S 4.68
R16: G 3.63 | H 4.49 | Y 3.24 | I 3.42 | A 3.69 | N 4.2 | F 2.63 | M 3.65 | V 3.51 | W 2.94 | K 3.99 | D 4.07 | S 4.04 | E 4.2 | L 3.6 | C 3.77 | T 4.04 | P 3.68 | Q 4.17
R13: M 2.54 | W 2.26 | S 3.38 | P 2.61 | Q 3.67 | V 2.28 | T 3.42 | N 3.92 | Y 3.32
A14: M 3.49 | H 3.38 | I 3.8 | E 3.67 | T 3.63 | D 3.1 | W 2.81 | Q 3.25 | R 3.18 | Y 2.83 | S 3.3 | P 2.83 | L 3.3 | F 3.49 | N 3.24 | G 1.9 | K 3.98 | C 2.82 | V 3.42
